Assay [1] deals with peptide SEQ ID NO:236 (tag moiety …, GGS spacers, cargo peptide).
The target of assay [2] is peptide SEQ ID NO:237 (tag moiety …, GGS spacer, cargo peptide).
Assay [3] deals with peptide SEQ ID NO:240 (tag moiety …, no spacer, cargo peptide).
For assay [4], the target named is peptide SEQ ID NO:243 (tag moiety …, GGS spacer, cargo peptide).
Assay [5] has as its target peptide SEQ ID NO:228 (tag moiety …, AAY spacers, cargo peptide).
In assay [6] the target is peptide SEQ ID NO:230 (tag moiety …, GGS spacers, cargo peptide).
Assay [7] has as its target peptide SEQ ID NO:234 (tag moiety …, AAY spacers, cargo peptide).
Assay [8] deals with peptide SEQ ID NO:235 (tag moiety […], AAA spacers, cargo peptide).

B1: bispecific binding molecule comprising a first specific binding molecule (comprising SEQ ID NO:265 a (bispecific antibody)
VH: EVQLLESGGGLVQPGGSLRLSCAASGFTFSSYAMSWVRQAPGKGLEWVSGISGYSGSTYYADSVKGRFTISRDNSKNTLYLQMNSLRAEDTAVYYCARYYSYYGYYYFDYWGQGTLVTVSS
VL: DIQMTQSPSSLSASVGDRVTITCRASQSISSYLNWYQQKPGKAPKLLIYAASSLQSGVPSRFSGSGSGTDFTLTISSLQPEDFATYYCQQGYPYPFTFGQGTKLEIK
scFv: QVQLVQSGAEVKKPGASVKVSCKASGFNIKDFNIHWVRQAPGQGLEWIGRIDPESGDAEYVPKFQGRVTMTRDTSTSTVYMELSSLRSEDTAVYYCTTGSYDLDVEYWGQGTLVTVSSGGGGSGGGGSGGGGSGGGGSDIQMTQSPSSLSASVGDRVTITCHASQNINVWLSWYQQKPGKAPKLLIYKASTLHTGVPSRFSGSGSGTDFTLTISSLQPEDFATYYCQQGQSYPLTFGQGTKLEIK
In the case of B1, the Kd (as a rule, the equilibrium constant for the complex coming apart) was 0.012 nM in assay [1]; 0.076 nM in [2]; 0.0055 nM in [3]; 0.0027 nM in assay [4]; 0.0078 nM in [5]; 0.012 nM with peptide. Also, the Kd in [6] stood at 0.016 nM; in assay [7] it was 0.017 nM; in assay [8] it was 0.011 nM.
